Numbered stars: 1 amine (or outer) side, 2 acyl side, 3 side chain; on linkers, the order of the positions; unused ones are H or OH. Bridge positions count the residues as written; N and C are the ends. Side chains are listed from the residue outwards. Ends that are not written are not given here. * marks the point of attachment. C18 diacid = O=C(O)CCCCCCCCCCCCCCCCC(=O)*; γGlu = O=C(O)[C@H](CCC(=O)[*:2])N[*:1]; C14 diacid = O=C(O)CCCCCCCCCCCCC(=O)*
T1: human amylin receptor (amylin 3(a) receptor: human calcitonin receptor coexpressed with RAMP-3) (human, UniProt P30988 25-474; O60896 24-148)
T1 sequence (looked up) 1: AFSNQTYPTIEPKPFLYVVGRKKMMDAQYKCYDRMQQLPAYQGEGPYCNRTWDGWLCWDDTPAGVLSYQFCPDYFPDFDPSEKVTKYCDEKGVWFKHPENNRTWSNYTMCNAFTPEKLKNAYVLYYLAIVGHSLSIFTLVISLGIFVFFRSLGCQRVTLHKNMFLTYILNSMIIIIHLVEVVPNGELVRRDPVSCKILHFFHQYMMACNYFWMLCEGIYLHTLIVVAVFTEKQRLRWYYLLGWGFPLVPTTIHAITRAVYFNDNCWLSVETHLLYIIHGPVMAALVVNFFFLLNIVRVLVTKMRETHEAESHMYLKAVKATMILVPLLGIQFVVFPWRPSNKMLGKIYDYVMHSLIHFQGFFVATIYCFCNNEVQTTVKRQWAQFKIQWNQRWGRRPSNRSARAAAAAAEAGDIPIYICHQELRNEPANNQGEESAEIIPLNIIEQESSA
T1 sequence (looked up) 2: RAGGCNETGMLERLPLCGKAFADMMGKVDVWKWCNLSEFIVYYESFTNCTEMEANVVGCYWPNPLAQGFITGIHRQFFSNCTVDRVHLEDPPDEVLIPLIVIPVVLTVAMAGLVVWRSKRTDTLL

T2: human calcitonin receptor (human, UniProt P30988 25-474)
T2 sequence (looked up): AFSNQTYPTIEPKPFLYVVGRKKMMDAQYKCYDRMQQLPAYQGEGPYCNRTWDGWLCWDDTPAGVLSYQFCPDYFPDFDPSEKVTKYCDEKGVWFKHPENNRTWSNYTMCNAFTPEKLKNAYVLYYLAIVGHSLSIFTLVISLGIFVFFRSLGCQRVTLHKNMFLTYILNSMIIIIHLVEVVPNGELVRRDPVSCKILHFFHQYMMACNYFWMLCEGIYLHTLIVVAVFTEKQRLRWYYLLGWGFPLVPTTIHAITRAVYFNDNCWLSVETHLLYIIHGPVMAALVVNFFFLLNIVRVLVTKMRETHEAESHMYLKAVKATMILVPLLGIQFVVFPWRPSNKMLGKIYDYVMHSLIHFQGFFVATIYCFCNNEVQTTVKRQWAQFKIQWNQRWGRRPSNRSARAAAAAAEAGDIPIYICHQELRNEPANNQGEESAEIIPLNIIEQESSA

B1: N^ε1-[(4S)-4-carboxy-4-(17-carboxyheptadecanoylamino)butanoyl]-[Arg17,Pro21,Pro27,His34]-h-amylin (peptide)
peptide: K([γGlu-C18 diacid])CNTATCATQRLANFLRHSSPNFGAIPSSTNVGHNTY-NH2
modifications: disulfide 2-7; N-terminus assumed
SMILES: CC[C@H](C)[C@H](NC(=O)[C@H](C)NC(=O)CNC(=O)[C@H](Cc1ccccc1)NC(=O)[C@H](CC(N)=O)NC(=O)[C@@H]1CCCN1C(=O)[C@H](CO)NC(=O)[C@H](CO)NC(=O)[C@H](Cc1c[nH]cn1)NC(=O)[C@H](CCCNC(=N)N)NC(=O)[C@H](CC(C)C)NC(=O)[C@H](Cc1ccccc1)NC(=O)[C@H](CC(N)=O)NC(=O)[C@H](C)NC(=O)[C@H](CC(C)C)NC(=O)[C@H](CCCNC(=N)N)NC(=O)[C@H](CCC(N)=O)NC(=O)[C@@H](NC(=O)[C@H](C)NC(=O)[C@@H]1CSSC[C@H](NC(=O)[C@@H](N)CCCCNC(=O)CC[C@H](NC(=O)CCCCCCCCCCCCCCCCC(=O)O)C(=O)O)C(=O)N[C@@H](CC(N)=O)C(=O)N[C@@H]([C@@H](C)O)C(=O)N[C@@H](C)C(=O)N[C@@H]([C@@H](C)O)C(=O)N1)[C@@H](C)O)C(=O)N1CCC[C@H]1C(=O)N[C@@H](CO)C(=O)N[C@@H](CO)C(=O)N[C@H](C(=O)N[C@@H](CC(N)=O)C(=O)N[C@H](C(=O)NCC(=O)N[C@@H](Cc1c[nH]cn1)C(=O)N[C@@H](CC(N)=O)C(=O)N[C@H](C(=O)N[C@@H](Cc1ccc(O)cc1)C(N)=O)[C@@H](C)O)C(C)C)[C@@H](C)O
B2: N^ε1-[(4S)-4-carboxy-4-(13-carboxytridecanoylamino)butanoyl]-[Arg17,Pro21,Pro27,His34]-h-amylin (peptide)
peptide: K([γGlu-C14 diacid])CNTATCATQRLANFLRHSSPNFGAIPSSTNVGHNTY-NH2
modifications: disulfide 2-7; N-terminus assumed
SMILES: CC[C@H](C)[C@H](NC(=O)[C@H](C)NC(=O)CNC(=O)[C@H](Cc1ccccc1)NC(=O)[C@H](CC(N)=O)NC(=O)[C@@H]1CCCN1C(=O)[C@H](CO)NC(=O)[C@H](CO)NC(=O)[C@H](Cc1c[nH]cn1)NC(=O)[C@H](CCCNC(=N)N)NC(=O)[C@H](CC(C)C)NC(=O)[C@H](Cc1ccccc1)NC(=O)[C@H](CC(N)=O)NC(=O)[C@H](C)NC(=O)[C@H](CC(C)C)NC(=O)[C@H](CCCNC(=N)N)NC(=O)[C@H](CCC(N)=O)NC(=O)[C@@H](NC(=O)[C@H](C)NC(=O)[C@@H]1CSSC[C@H](NC(=O)[C@@H](N)CCCCNC(=O)CC[C@H](NC(=O)CCCCCCCCCCCCC(=O)O)C(=O)O)C(=O)N[C@@H](CC(N)=O)C(=O)N[C@@H]([C@@H](C)O)C(=O)N[C@@H](C)C(=O)N[C@@H]([C@@H](C)O)C(=O)N1)[C@@H](C)O)C(=O)N1CCC[C@H]1C(=O)N[C@@H](CO)C(=O)N[C@@H](CO)C(=O)N[C@H](C(=O)N[C@@H](CC(N)=O)C(=O)N[C@H](C(=O)NCC(=O)N[C@@H](Cc1c[nH]cn1)C(=O)N[C@@H](CC(N)=O)C(=O)N[C@H](C(=O)N[C@@H](Cc1ccc(O)cc1)C(N)=O)[C@@H](C)O)C(C)C)[C@@H](C)O

Experiments:
[1] = target: T1, human amylin receptor (amylin 3(a) …); assay: cell-based or functional assay
[2] = target: T2, human calcitonin receptor; assay: cell-based or functional assay

| hAmylin-R funct. EC50 (pM) [1] [pM] | Ratio hCT/hAmylin funct. [2] | hCTR funct. EC50 (pM) [2] [pM] | Binder |
| --- | --- | --- | --- |
| 96 | 60.9 | 5850 | B1 |
| 28 | 38.8 | 1090 | B2 |

Source: patent US20140087995A1 (published 2014)
